Measured values from publication PMC12884264.

What was measured:
[1] = molecular target: computationally designed GFP(+16)BE (positive charges mainly at both ends of the barrel) [GFP: P42212]; assay: SEC
[2] = molecular target: supercharged green fluorescent protein GFP(+28) [GFP: P42212]; assay: SEC
[3] = molecular target: supercharged green fluorescent protein GFP(+36) [GFP: P42212]; assay: SEC
[4] = molecular target: Archaeoglobus fulgidus ferritin, wildtype (Archaeoglobus fulgidus) (UniProt O29424); assay: time-resolved fluorescence anisotropy
[5] = molecular target: Archaeoglobus fulgidus ferritin, wildtype (Archaeoglobus fulgidus) (UniProt O29424); assay: SEC + other: UV/Vis absorbance

Archaeoglobus fulgidus ferritin, wildtype (from UniProt O29424 1-173) (natural protein)
Kd [1]: 51.5 µM
Kd [2]: 36.7 µM
Kd [3]: 22.7 µM
stoichiometry N (GFP per 24 mer) [3]: 3

supercharged green fluorescent protein GFP(+36) (from UniProt P42212 1-238)
stoichiometry N (AfFtn2 per GFP(+36)) [4]: 12
stoichiometry N (GFP(+36) per cage) [4]: 1
stoichiometry N (GFP per ferritin cage) [5]: 2 to 3
stoichiometry N (GFP(+36) per 24 mer ferritin) [5]: 0.7
stoichiometry N (GFP(+36) per AfFtn24) [5]: 1.2
stoichiometry N (GFP(+36) per ferritin 24 mer) [5]: 4 to 5
